Data as given in patent US20170281807A1 (UNIVERSITY OF TENNESSEE RESEARCH FOUNDATION, published 2017).
Ends that are not written are not given here.

B1: peptide p66 (11-1F4 peptope) (peptide)
peptide: KAQKAQAKQAKQAQKAQKAQAKQAKQAQKAQKAQAKQAKQSVTVVTKHYAAFPENLLI
modifications: also: 125I-labeled in pull-down and in vivo work
notes: also called peptope p66

Legend:
[1] = target: B1; experiment: EuLISA, peptide coated, 11-1F4 titrated from 100 nM
[2] = target: T1, synthetic Aβ(1-40) amyloid fibrils (UniProt P05067 672-711); experiment: EuLISA, fibrils coated, p66 added and washed, detected by 11-1F4
T1 construct: domain: Aβ(1-40); Fibrillar aggregate; 1-40 counts on the Aβ peptide, not on the precursor
T1 sequence (P05067 672-711 limits assumed): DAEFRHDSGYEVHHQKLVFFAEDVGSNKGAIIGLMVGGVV

[3] = target: BSA (UniProt P02769 25-607); experiment: EuLISA, BSA-blocked wells without fibrils, p66 then 11-1F4
BSA, sequence (P02769 25-607 limits assumed): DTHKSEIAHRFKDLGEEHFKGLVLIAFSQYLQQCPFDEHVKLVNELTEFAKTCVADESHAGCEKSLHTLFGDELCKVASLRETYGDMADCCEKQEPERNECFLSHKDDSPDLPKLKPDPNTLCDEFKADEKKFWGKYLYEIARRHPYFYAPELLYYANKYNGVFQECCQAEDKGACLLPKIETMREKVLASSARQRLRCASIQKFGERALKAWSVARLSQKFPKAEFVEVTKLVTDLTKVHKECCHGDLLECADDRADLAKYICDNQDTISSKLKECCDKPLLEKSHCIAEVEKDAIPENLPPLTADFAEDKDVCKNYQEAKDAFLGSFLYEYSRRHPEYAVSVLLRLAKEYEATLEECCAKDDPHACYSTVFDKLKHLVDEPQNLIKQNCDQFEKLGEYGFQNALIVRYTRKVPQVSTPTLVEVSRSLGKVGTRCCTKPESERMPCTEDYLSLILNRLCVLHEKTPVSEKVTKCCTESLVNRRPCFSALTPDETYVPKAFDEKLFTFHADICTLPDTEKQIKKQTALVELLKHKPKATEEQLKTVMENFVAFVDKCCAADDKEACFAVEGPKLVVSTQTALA

EC50 [1] | binding result [2] | Binder | binding result [3]
~500 pM | – | murine 11-1F4 monoclonal antibody (antibody, V domains shown) VH: QVQLKESGPGLVAPSQSLSITCTVSGFSLSSYGVSWVRQPPGKGLEWLGVIWGDGSTNYHPNLMSRLSISKDISKSQVLFKLNSLQTDDTATYYCVTLDYWGQGTSVTVSS VL: DVVMTQTPLSLPVSLGDQASISCRSSQSLVHRNGNTYLHWYLQKPGQSPKLLIYKVSNRFSGVPDRFSGSGSGTDFTLKISRVEAEDLGLYFCFQTTYVPNTFGGGTKLEIK | –
– | binds | B1 | no binding (tested: 100 µl of a 0.83 mM stock solution)
